The values below come from patent US20240383982A1 (Genmab, published 2024).

In experiment [1] the target is T1, rat (Rattus norvegicus) B7H4, full length, on HEK-293F cells (rat, UniProt Q501W4 25-257).
T1 construct: Uniprot Q501W4; also called rat B7H4
T1 sequence: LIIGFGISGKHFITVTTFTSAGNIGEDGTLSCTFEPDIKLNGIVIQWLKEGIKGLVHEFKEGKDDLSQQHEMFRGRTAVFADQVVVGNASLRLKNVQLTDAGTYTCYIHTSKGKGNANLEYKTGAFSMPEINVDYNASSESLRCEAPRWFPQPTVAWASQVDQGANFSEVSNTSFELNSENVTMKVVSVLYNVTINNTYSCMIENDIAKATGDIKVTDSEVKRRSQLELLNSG
In words: flow cytometry, HEK-293F cells transiently transfected with rat B7H4, PE anti-human IgG F(ab')2 [panel Rat B7H4]. The protocol:
(§1) Cells (3×10⁴ cells/well) were incubated in polystyrene 96-well round-bottom plates (Greiner bio-one, cat. no. 650180) with serial dilutions of antibodies (ranging from 0.000458 to 30 μg/mL in 4-fold dilution steps) in 100 μL PBS/0.1% BSA/0.02% azide (staining buffer) at 4° C. for 30 min. Experiments were performed in technical duplicate. After washing twice in staining buffer, cells were incubated in 50 μL secondary antibody at 4° C. for 30 min. As a secondary antibody, R-Phycoerythrin (PE)-conjugated goat-anti-human IgG F(ab′)₂ (1:500 in FACS buffer; Jackson ImmunoResearch Laboratories, Inc., West Grove, PA, cat. no. 109-116-098), was used. Cells were washed twice in staining buffer, re-suspended in 30 μL FACS buffer containing Topro-3 (1:10,000 dilution) and analyzed on an iQue Screener (Intellicyt Corporation, USA). Binding curves were analyzed using non-linear regression (sigmoidal dose-response with variable slope) using GraphPad Prism V7.02 software (GraphPad Software, San Diego, CA, USA).
(In flow cytometry, cells or beads pass a laser one at a time.)

Experiment [2] deals with T2, human B7H4, full length, on cells (human, UniProt Q7Z7D3 25-282).
T2 construct: Uniprot Q7Z7D3; Used for transfected HEK cells and for the B7H4-expressing human tumor cell lines (endogenous B7H4); also called VTCN1
T2 sequence: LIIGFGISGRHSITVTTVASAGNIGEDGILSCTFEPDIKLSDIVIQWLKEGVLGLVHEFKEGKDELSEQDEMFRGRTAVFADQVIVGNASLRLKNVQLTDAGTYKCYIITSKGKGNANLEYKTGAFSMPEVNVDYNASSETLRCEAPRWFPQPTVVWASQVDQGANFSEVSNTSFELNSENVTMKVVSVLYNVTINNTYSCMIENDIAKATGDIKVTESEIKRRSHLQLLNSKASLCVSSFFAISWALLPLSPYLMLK
In words: flow cytometry, HEK-293F cells transiently transfected with human B7H4, PE anti-human IgG F(ab')2 [panel Human B7H4]. The method, then:
as §1

For experiment [3], the target named is T3, rabbit (Oryctolagus cuniculus) B7H4, full length, on HEK-293F cells (rabbit, UniProt Q7Z7D3 25-282 (human entry)).
T3 construct: Uniprot G1TQE8; also called rabbit B7H4
T3 chain: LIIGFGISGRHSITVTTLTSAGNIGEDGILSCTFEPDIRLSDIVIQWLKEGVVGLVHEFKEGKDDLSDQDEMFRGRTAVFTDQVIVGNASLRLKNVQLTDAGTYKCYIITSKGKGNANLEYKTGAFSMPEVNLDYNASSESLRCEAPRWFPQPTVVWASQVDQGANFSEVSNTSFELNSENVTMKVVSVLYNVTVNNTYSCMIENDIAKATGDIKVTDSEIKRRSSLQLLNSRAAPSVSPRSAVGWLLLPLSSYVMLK
Description: flow cytometry, HEK-293F cells transiently transfected with rabbit B7H4, PE anti-human IgG F(ab')2 [panel Rabbit B7H4]. The method, then:
as §1

Experiment [4] addresses T4, mouse (Mus musculus) B7H4, full length, on HEK-293F cells (mouse, UniProt Q7TSP5 25-257).
T4 construct: Uniprot Q7TSP5; also called mouse B7H4
T4 sequence: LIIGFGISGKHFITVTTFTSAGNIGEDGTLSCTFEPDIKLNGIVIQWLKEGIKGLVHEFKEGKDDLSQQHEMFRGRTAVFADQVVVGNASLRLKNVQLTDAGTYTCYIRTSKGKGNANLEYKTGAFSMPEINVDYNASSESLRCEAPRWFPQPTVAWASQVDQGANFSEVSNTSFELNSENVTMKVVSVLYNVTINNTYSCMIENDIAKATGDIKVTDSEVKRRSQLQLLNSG
Description: flow cytometry, HEK-293F cells transiently transfected with mouse B7H4, PE anti-human IgG F(ab')2 [panel Mouse B7H4]. The protocol: as §1

The target in experiment [5] is T5, cynomolgus monkey (Macaca fascicularis) B7H4 transcript 1, full length, on HEK-293F cells (cynomolgus monkey, UniProt Q7Z7D3 25-282 (human entry)).
T5 construct: Uniprot A0A2K5U6P5; also called cynomolgus monkey B7H4; cynomolgus B7H4
T5 chain: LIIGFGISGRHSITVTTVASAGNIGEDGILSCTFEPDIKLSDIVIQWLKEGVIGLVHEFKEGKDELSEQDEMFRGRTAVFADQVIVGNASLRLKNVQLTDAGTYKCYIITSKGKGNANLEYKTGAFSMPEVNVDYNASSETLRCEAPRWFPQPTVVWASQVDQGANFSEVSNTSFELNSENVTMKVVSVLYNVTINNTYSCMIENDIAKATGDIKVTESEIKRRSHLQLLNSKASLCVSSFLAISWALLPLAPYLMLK
Description: flow cytometry, HEK-293F cells transiently transfected with cynomolgus monkey B7H4, PE anti-human IgG F(ab')2 [panel Cynomolgus monkey B7H4]. The method, then:
as §1

Experiment [6] concerns the target T6, dog (Canis familiaris) B7H4, full length, on HEK-293F cells (dog, UniProt Q7Z7D3 25-282 (human entry)).
T6 construct: Uniprot F1P8R9; also called dog B7H4
T6 chain: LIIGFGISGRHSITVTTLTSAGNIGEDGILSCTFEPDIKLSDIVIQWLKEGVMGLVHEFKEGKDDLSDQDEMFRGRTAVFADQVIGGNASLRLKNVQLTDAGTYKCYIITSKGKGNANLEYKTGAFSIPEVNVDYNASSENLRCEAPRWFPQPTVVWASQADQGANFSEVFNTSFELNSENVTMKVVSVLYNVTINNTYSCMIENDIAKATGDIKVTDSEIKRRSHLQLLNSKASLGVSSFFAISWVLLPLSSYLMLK
Description: flow cytometry, HEK-293F cells transiently transfected with dog B7H4, PE anti-human IgG F(ab')2 [panel Dog B7H4]. The protocol: as §1

Experiment [7] addresses T5, cynomolgus monkey (Macaca fascicularis) …. In words: flow cytometry, HEK-293F cells transfected with cynomolgus monkey B7H4 [panel Cynomolgus monkey B7H4]. The protocol:
as §1

B1: bsIgG1-huCD3-H101G-FEALxB7H4-C1-N52S-FEAR (bispecific antibody)
heavy 1: not shown
light 1: not shown
heavy 2: QVQLQQWGAGLLKPSETLSLTCAVYGGSFSGYYWSWIRQPPGKGLEWIGEISHSGSTNYNPSLKSRVTISIDTSKNQFSLKLTSVTAADTAVFYCARGLFNWNFDSWGQGTLVTVSSASTKGPSVFPLAPSSKSTSGGTAALGCLVKDYFPEPVTVSWNSGALTSGVHTFPAVLQSSGLYSLSSVVTVPSSSLGTQTYICNVNHKPSNTKVDKRVEPKSCDKTHTCPPCPAPEFEGGPSVFLFPPKPKDTLMISRTPEVTCVVVAVSHEDPEVKFNWYVDGVEVHNAKTKPREEQYNSTYRVVSVLTVLHQDWLNGKEYKCKVSNKALPAPIEKTISKAKGQPREPQVYTLPPSREEMTKNQVSLTCLVKGFYPSDIAVEWESNGQPENNYKTTPPVLDSDGSFFLYSRLTVDKSRWQQGNVFSCSVMHEALHNHYTQKSLSLSPGK
light 2: DIQMTQSPSSLSASVGDRVTITCRASQGIRNDLGWYQQKPGKAPKRLIYGASSLQSGVPSRFSGSGSGTEFTLTISSLQPEDFATYYCLQHNSYPRTFGQGTTVEIKRTVAAPSVFIFPPSDEQLKSGTASVVCLLNNFYPREAKVQWKVDNALQSGNSQESVTEQDSKDSTYSLSSTLTLSKADYEKHKVYACEVTHQGLSSPVTKSFNRGEC
notes: also called bslgG1-huCD3-H101G-FEALxB7H4-C1-N52S-FEAR; BslgG1-huCD3-H101G-FEALxB7H4-C1-N52S-FEAR
Broadly, the EC50 (read off the curve) is the concentration needed to bring the measured effect to its halfway point. Take B1: the binding result in experiment [1], in experiment [3], in experiment [4] and in experiment [6] was “binds” in each case. Besides, the “EC50 (read off the curve)” value is roughly 0.9 µg/mL in experiment [2] and roughly 0.6 µg/mL in experiment [5].

B2: IgG1-B7H4-C1-N52S-FEAR (antibody, V domains shown)
VH: QVQLQQWGAGLLKPSETLSLTCAVYGGSFSGYYWSWIRQPPGKGLEWIGEISHSGSTNYNPSLKSRVTISIDTSKNQFSLKLTSVTAADTAVFYCARGLFNWNFDSWGQGTLVTVSS
VL: DIQMTQSPSSLSASVGDRVTITCRASQGIRNDLGWYQQKPGKAPKRLIYGASSLQSGVPSRFSGSGSGTEFTLTISSLQPEDFATYYCLQHNSYPRTFGQGTTVEIKR
notes: Full length human IgG1 with L234F, L235E, D265A, K409R (FEAR) heavy chain constant region and kappa light chain; bivalent, monospecific; also called IgG1-B7H4-C1-052S-FEAR
Consider B2, for which the concentration giving a half-maximal response (EC50 (read off the curve)) is roughly 0.3 µg/mL in experiment [1]; roughly 0.3 µg/mL in experiment [2]; roughly 0.3 µg/mL in experiment [3]; roughly 0.3 µg/mL in experiment [4]; roughly 0.2 µg/mL in experiment [5]; roughly 0.3 µg/mL in experiment [6]. In experiment [7], the “EC50 (read off the curve)” value was roughly 0.1 µg/mL.

B3: IgG1-B7H4-C5-FEAR (antibody, V domains shown)
VH: QLQLQESGPGLVKPSETLSLTCTVSGGSIKSGSYYWGWIRQPPGKGLEWIGNIYYSGSTYYNPSLRSRVTISVDTSKNQFSLKLSSVTAADTAVYYCAREGSYPNQFDPWGQGTLVTVSS
VL: EIVMTQSPATLSVSPGERATLSCRASQSVSSNLAWYQQKPGQAPRLLIYGASTRATGIPARFSGSGSGTEFTLTISSLQSEDFAVYYCQQYHSFPFTFGGGTKVEIKR
notes: Full length IgG1 FEAR, kappa; variable domains from US20190085080A1
For the molecule B3, in experiment [7], the binding result is “binds”.
